Reference: patent US20220143148A1, “COMPOSITIONS AND METHODS FOR MODULATING CGRP SIGNALING TO REGULATE INTESTINAL INNATE LYMPHOID CELLS” (The Broad Institute, Inc., priority 2019, published 2022)

System: small intestinal immune cells
Test: Droplet-based scRNA-seq of small intestinal immune cells (LP and PP), OVA vs PBS, clustering and differential expression
Assay type: in vivo, mouse
Description: To comprehensively characterize small intestinal immune cells, Applicants generated scRNA-Seq profiles for 58,067 immune cells collected from lamina propria (LP) and Peyer's patch (PP) regions at steady state and after induction of a type 2 inflammatory reaction to ovalbumin (OVA) (Brandt et al., 2003) (FIGS. 1A and 8A). To ensure sufficient representation of rare cells, Applicants combined a normalization strategy—removing by flow sorting either a portion of IgD+ naïve B cells, which are the most abundant cell type in PPs, or all CD19+ and CD3+ T cells (FIG. 8B, Methods)—with profiling of a sufficiently large number of cells number (P>0.99 to recover at least 15 cells from each cluster, Methods) by massively parallel scRNA-seq (Haber et al., 2017) (Methods). Applicants obtained 36,797 and 21,270 high quality cells passing initial filtering (Methods) from PP and LP regions, respectively.
Overall, Applicants annotated 27 cell subsets across the two compartments, spanning T cells, B cells, ILCs, dendritic cells (DCs), myeloid cells and stromal cells, in frequencies ranging from 0.07% to 14%. Briefly, Applicants first partitioned the cells from the PP regions by unsupervised clustering (Methods) into 46 clusters, retained the 97% of cells that were robustly assigned cell identities in each cluster (Methods), assigned the cells from the LP regions to the 46 clusters using a classifier (Methods), and visualized the data with scvis (Ding et al., 2018), a deep generative model-based method (FIGS. 1B and 8C, Methods). Next, Applicants identified genes that were differentially expressed between the cells in each cluster and the remaining cells (Table 1, Methods), as well as between pairs of clusters (Table 2), to elucidate identities of similar cell types/states. Applicants excluded from downstream analysis clusters mostly consisting of contaminants from epithelium, likely doublets, or cells with a small number of Unique Molecular Identifiers (UMIs) (FIGS. 1C and 8D), or lacking distinct markers (Methods). Altogether, Applicants retained 27 clusters spanning 85% of the cells and each associated with distinct marker genes (FIG. 8E, Methods).
To induce allergic reaction to OVA, 6 to 7 weeks old mice were sensitized twice, two weeks apart, with 50 μg of OVA plus 1 mg of aluminum potassium sulfate adjuvant via intraperitoneal injection. Two weeks later, mice were orally administered with 50 mg of OVA on every other day for a total of five times. 1 μg of α-CGRP peptide was administered simultaneously when indicated. Mice were deprived of food for 3-4 hours in cages with wood chip bedding for limiting antigen degradation in the stomach before each intragastric challenge.
Isolation of cells from Peyer's patches (PPs). Peyer's patches (PPs) were carefully dissected from the small intestine under a stereo microscope using a fine scissor, pierced once with a fine forcep. Tissues were digested in freshly made digestion buffer (RPMI-1640 containing 100 μg/ml Liberase™ and 50 μg/ml DNase I at 37° C. on a roto-mixer. After 15 min, tissues were very gently mixed using a 1 ml pipette. The supernatant was collected and added to ice-cold MACS buffer (pH 7.4; PBS plus 2% FCS and 2 mM EDTA). Pre-warmed (37° C.) fresh digestion buffer was added to the remaining tissues. After rotation at 37° C. for 15 min, the mixture was vigorously mixed using a 1 ml pipette for 1 min. Supernatants from the two steps were combined and passed through 70 μm filters and stained for FACS (below).
Isolation of cells from the lamina propria (LP). The small intestines were opened longitudinally and washed in ice-cold PBS. For scRNA-seq, roughly 0.5 cm of fragments from each of the distal, middle and proximal regions without visible PPs were collected. Epithelial cells were dissociated by tissue rotation in pre-warmed (37° C.) PBS containing 10 mM EDTA at 37° C. for 15 min, followed by additional incubation on ice for 15 min. Tissues were then shaken vigorously. […]

B1: OVA (protein, UniProt P01012 2-386, looked up)
Ovalbumin: GSIGAASMEFCFDVFKELKVHHANENIFYCPIAIMSALAMVYLGAKDSTRTQINKVVRFDKLPGFGDSIEAQCGTSVNVHSSLRDILNQITKPNDVYSFSLASRLYAEERYPILPEYLQCVKELYRGGLEPINFQTAADQARELINSWVESQTNGIIRNVLQPSSVDSQTAMVLVNAIVFKGLWEKAFKDEDTQAMPFRVTEQESKPVQMMYQIGLFRVASMASEKMKILELPFASGTMSMLVLLPDEVSGLEQLESIINFEKLTEWTSSNVMEERKIKVYLPRMKMEEKYNLTSVLMAMGITDVFSSSANLSGISSAESLKISQAVHAAHAEINEAGREVVGSAEAGVDAASVSEEFRADHPFLFCIKHIATNAVLFFGRCVSP
Tsc22d3 LN (average fold change) (PP, cluster ID 9, OVA vs PBS): 1.031
Tubb5 LN (average fold change) (PP, cluster ID 9, OVA vs PBS): −0.244
Uba52 LN (average fold change) (PP, cluster ID 9, OVA vs PBS): 0.365
Ubb LN (average fold change) (PP, cluster ID 9, OVA vs PBS): −0.190
Wdr89 LN (average fold change) (PP, cluster ID 9, OVA vs PBS): 0.469
Zfp36l2 LN (average fold change) (PP, cluster ID 9, OVA vs PBS): 1.590
1110059E24Rik percentage of expressing cells in OVA-treated group (PP, cluster ID 10): 0.507
Apobec1 percentage of expressing cells in OVA-treated group (PP, cluster ID 10): 0.807
Basp1 percentage of expressing cells in OVA-treated group (PP, cluster ID 10): 0.755
Btg1 percentage of expressing cells in OVA-treated group (PP, cluster ID 10): 0.985
Cd47 percentage of expressing cells in OVA-treated group (PP, cluster ID 10): 0.602
Crlf3 percentage of expressing cells in OVA-treated group (PP, cluster ID 10): 0.658
Ddit4 percentage of expressing cells in OVA-treated group (PP, cluster ID 10): 0.296
Dusp1 percentage of expressing cells in OVA-treated group (PP, cluster ID 10): 0.451
Egln2 percentage of expressing cells in OVA-treated group (PP, cluster ID 10): 0.558
Hspa8 percentage of expressing cells in OVA-treated group (PP, cluster ID 10): 0.975
Igha percentage of expressing cells in OVA-treated group (PP, cluster ID 10): 0.405
Napsa percentage of expressing cells in OVA-treated group (PP, cluster ID 10): 0.776
Ppp1r21 percentage of expressing cells in OVA-treated group (PP, cluster ID 10): 0.165
Rsrp1 percentage of expressing cells in OVA-treated group (PP, cluster ID 10): 0.722
Sesn1 percentage of expressing cells in OVA-treated group (PP, cluster ID 10): 0.402
Sh3glb2 percentage of expressing cells in OVA-treated group (PP, cluster ID 10): 0.187
Tsc22d3 percentage of expressing cells in OVA-treated group (PP, cluster ID 10): 0.689
Ttc7 percentage of expressing cells in OVA-treated group (PP, cluster ID 10): 0.244
Uba52 percentage of expressing cells in OVA-treated group (PP, cluster ID 10): 0.985
Zfp36l2 percentage of expressing cells in OVA-treated group (PP, cluster ID 10): 0.68
1110059E24Rik LN (average fold change) (PP, cluster ID 10, OVA vs PBS): 0.715
Apobec1 LN (average fold change) (PP, cluster ID 10, OVA vs PBS): 0.309
Basp1 LN (average fold change) (PP, cluster ID 10, OVA vs PBS): −0.516
Btg1 LN (average fold change) (PP, cluster ID 10, OVA vs PBS): 0.438
Cd47 LN (average fold change) (PP, cluster ID 10, OVA vs PBS): 0.638
Crlf3 LN (average fold change) (PP, cluster ID 10, OVA vs PBS): 0.396
Ddit4 LN (average fold change) (PP, cluster ID 10, OVA vs PBS): 0.864
Dusp1 LN (average fold change) (PP, cluster ID 10, OVA vs PBS): 0.614
Egln2 LN (average fold change) (PP, cluster ID 10, OVA vs PBS): 0.624
Hspa8 LN (average fold change) (PP, cluster ID 10, OVA vs PBS): −0.286
Igha LN (average fold change) (PP, cluster ID 10, OVA vs PBS): 0.162
Napsa LN (average fold change) (PP, cluster ID 10, OVA vs PBS): 0.374
Ppp1r21 LN (average fold change) (PP, cluster ID 10, OVA vs PBS): 1.045
Rsrp1 LN (average fold change) (PP, cluster ID 10, OVA vs PBS): −0.187
Sesn1 LN (average fold change) (PP, cluster ID 10, OVA vs PBS): 1.071
Sh3glb2 LN (average fold change) (PP, cluster ID 10, OVA vs PBS): 0.383
Tsc22d3 LN (average fold change) (PP, cluster ID 10, OVA vs PBS): 1.088
Ttc7 LN (average fold change) (PP, cluster ID 10, OVA vs PBS): 1.338
Uba52 LN (average fold change) (PP, cluster ID 10, OVA vs PBS): 0.287
Zfp36l2 LN (average fold change) (PP, cluster ID 10, OVA vs PBS): 1.856
Jund percentage of expressing cells in OVA-treated group (PP, cluster ID 11): 0.855
Jund LN (average fold change) (PP, cluster ID 11, OVA vs PBS): −0.624
1600014C10Rik: percentage of expressing cells in OVA-treated group (cluster ID 4, PP): 0.185
2010300C02Rik: percentage of expressing cells in OVA-treated group (cluster ID 4, PP): 0.518
2310001H17Rik: percentage of expressing cells in OVA-treated group (cluster ID 4, PP): 0.214
4921524J17Rik: percentage of expressing cells in OVA-treated group (cluster ID 4, PP): 0.161
Alyref: percentage of expressing cells in OVA-treated group (cluster ID 4, PP): 0.141
Amd1: percentage of expressing cells in OVA-treated group (cluster ID 4, PP): 0.192
Asb2: percentage of expressing cells in OVA-treated group (cluster ID 4, PP): 0.548
Azin1: percentage of expressing cells in OVA-treated group (cluster ID 4, PP): 0.135
Bin3: percentage of expressing cells in OVA-treated group (cluster ID 4, PP): 0.235
Bzw1: percentage of expressing cells in OVA-treated group (cluster ID 4, PP): 0.321
Cacybp: percentage of expressing cells in OVA-treated group (cluster ID 4, PP): 0.293
Cd69: percentage of expressing cells in OVA-treated group (cluster ID 4, PP): 0.737
Cdkn1a: percentage of expressing cells in OVA-treated group (cluster ID 4, PP): 0.256
Clec2d: percentage of expressing cells in OVA-treated group (cluster ID 4, PP): 0.261
Cwc25: percentage of expressing cells in OVA-treated group (cluster ID 4, PP): 0.12
D16Ertd472e: percentage of expressing cells in OVA-treated group (cluster ID 4, PP): 0.175
Dnaja1: percentage of expressing cells in OVA-treated group (cluster ID 4, PP): 0.705
Dnajb9: percentage of expressing cells in OVA-treated group (cluster ID 4, PP): 0.18
Egln3: percentage of expressing cells in OVA-treated group (cluster ID 4, PP): 0.172
Fam46a: percentage of expressing cells in OVA-treated group (cluster ID 4, PP): 0.099
Fibp: percentage of expressing cells in OVA-treated group (cluster ID 4, PP): 0.178
Furin: percentage of expressing cells in OVA-treated group (cluster ID 4, PP): 0.382
Gatad1: percentage of expressing cells in OVA-treated group (cluster ID 4, PP): 0.155
Gcnt2: percentage of expressing cells in OVA-treated group (cluster ID 4, PP): 0.144
Gimap3: percentage of expressing cells in OVA-treated group (cluster ID 4, PP): 0.536
Git2: percentage of expressing cells in OVA-treated group (cluster ID 4, PP): 0.3
Gnb1: percentage of expressing cells in OVA-treated group (cluster ID 4, PP): 0.419
